This note sets out measurements from patent US20140056903A1 (Regeneron, published 2014).

Experiment [1] addresses T1, human GFRα3 expressed with a C-terminal myc-myc-hexahistidine tag (human, UniProt O60609 32-374, biotinylated (sites not given) in ELISA format 2 and in the Octet cross-competition; not in SPR).
T1 construct: also called hGFRα3-mmh; hGFRα3-mmH
Put plainly: SPR, Ab captured, 25C. In a few lines:
(§1)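 Antibodies captured on anti-mouse or anti-human IgG CM5 surfaces, in HBS-EP or PBS-P20 at pH 7.4. mmh-tagged GFRα3 injected at 200–7.4 nM and Fc-tagged at 100–3.7 nM, with association up to 4 min and dissociation up to 20 min. Data fitted 1:1; KD=kd/ka, t1/2=ln2/(60*kd).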

Experiment [2] addresses T1, human GFRα3 expressed with a C-terminal …. Put plainly: Octet cross-competition; biotin-hGFRα3-mmH pre-saturated with first antibody H4H2294S. Here is the method:
(§2) A cross-competition assay was conducted to assess the ability of select antibodies to compete with one another for binding to human GFRα3 using an Octet RED384 biosensor (Fortebio Inc.). The entire experiment was performed at 25° C. with the flow rate of 1000 rpm in Octet HBST buffer (0.01 M HEPES pH7.4, 0.15M NaCl, 3 mM EDTA, 0.05% v/v Surfactant P20, 0.1 mg/mL BSA). To assess whether 2 antibodies were able to compete with one another for binding to their respective epitopes on biotinylated recombinant human GFRα3 expressed with a C-terminal myc-myc-hexahistidine tag (biotin-hGFRα3-mmH; SEQ ID:370), around ˜1.2 nm of biotin-hGFRα3-mmH was first captured onto streptavidin-coated Octet sensor tips (Fortebio Inc, #18-5019) by submerging the tips for 1 minute into a 10 μg/mL solution of biotin-hGFRα3-mmH. The antigen coated sensor tips were then placed into wells containing 25 μg/mL solution of a first anti-GFRα3 monoclonal antibody for 4 minutes to saturate the biotin-hGFRα3-mmH surface. The sensor tips were then subsequently dipped into wells containing 25 μ/mL solution of a second anti-GFRα3 monoclonal antibody. The sensor tips were washed in Octet HBST buffer in between every step of the experiment. The real-time binding response was monitored during the course of the experiment and the binding response at the end of every step was recorded as shown in FIG. 9. The response of mAb-2 binding to biotin-hGFRα3-mmH pre-complexed with the first antibody was compared and competitive/non-competitive behavior of different anti-GFRα3 monoclonal antibodies was determined.

Experiment [3] has the same target. The experiment can be described thus: Octet cross-competition; biotin-hGFRα3-mmH pre-saturated with first antibody H4H2295S. As for the experimental part:
as §2

Experiment [4] has the same target. Put plainly: SPR, Ab captured, 37C. In a few lines: as §1
Experiment [5] concerns the target T2, monkey GFRα3 expressed with a C-terminal myc-myc-hexahistidine tag (monkey (Mf), UniProt O60609 32-374 (human entry), limits assumed).
T2 construct: also called MfGFRα3-mmh; MfGFRα3-mmH
T2 chain: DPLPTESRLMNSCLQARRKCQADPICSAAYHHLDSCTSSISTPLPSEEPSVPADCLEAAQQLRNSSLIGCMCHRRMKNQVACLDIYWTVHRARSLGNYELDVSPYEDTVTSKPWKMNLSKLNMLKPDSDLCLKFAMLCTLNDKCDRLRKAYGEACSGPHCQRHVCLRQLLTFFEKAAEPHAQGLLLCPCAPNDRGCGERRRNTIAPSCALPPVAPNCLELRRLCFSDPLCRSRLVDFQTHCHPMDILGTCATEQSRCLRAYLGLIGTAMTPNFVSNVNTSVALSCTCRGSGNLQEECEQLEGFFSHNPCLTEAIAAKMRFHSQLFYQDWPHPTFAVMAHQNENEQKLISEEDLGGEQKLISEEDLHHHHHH
Put plainly: SPR, Ab captured, 37C. In a few lines: as §1

The target of experiment [6] is T1, human GFRα3 expressed with a C-terminal …. Put plainly: Octet cross-competition; biotin-hGFRα3-mmH pre-saturated with first antibody H4H2355S. As for the experimental part:
as §2

Experiment [7] has the same target. The experiment can be described thus: Octet cross-competition; biotin-hGFRα3-mmH pre-saturated with first antibody H4H2212N. As for the experimental part: as §2

B1: H4H2294S (antibody, human IgG4, V domains shown)
VH: EVQLVESGGGLVQPGGSLRLSCAASGFTFSSYAMSWVRQAPGKGLEWVSVISGSGGSTYYADAVKGRFTISRDNSKHTLYLQMNSLRAEDTAVYYCTKPSSYSSSNFYYGMDVWGQGSTVTVSS
VL: DIQLTQSPSSVSASVGDRVTITCRASQGISSWLAWYQQKPGKAPKLLIYAASSLQSGVPSRFSGSGSGTDFTLTISSLQPEDFATYYCQQTNSFPFPFGPGTKVDIK
notes: human IgG4 Fc (H4H)
With B1, the values for the Kd in experiment [1], in experiment [4] and in experiment [5] were 0.142 nM, 0.338 nM and 2.25 nM, respectively. For the same molecule, the koff was 7.99e-05 s⁻¹ in experiment [1], 0.000261 s⁻¹ in experiment [4] and 0.000974 s⁻¹ in experiment [5]. Also, the values for the kon in experiment [1], in experiment [4] and in experiment [5] were 563000 M⁻¹ s⁻¹, 773000 M⁻¹ s⁻¹ and 433000 M⁻¹ s⁻¹, respectively. In addition, the t1/2 in experiment [1] came to 145 min; in experiment [4] it was 44 min; in experiment [5] it was 12 min. Besides, the “binding response of second antibody (nm)” value in experiment [2] amounted to 0.02 nm; in experiment [3] it was 0.02 nm; in experiment [6] it was 0.16 nm; in experiment [7], 2.12 nm.

B2: H4H2357S (antibody, human IgG4, V domains shown)
VH: EVQLVESGGGLVQPGGSLRLSCAASTFTFSSYAMTWVRQAPGKGLEWVSSISGSGDSTYYADSVKGRFTISRDNSKNTLFLQMNSLRAEDTAVYYCAKKDGPGRYYVRYGMDVWGQGTTVTVSS
VL: DIQMTQSPSSVSASVGDRVTITCRASQGISSWLAWYQQKPGKAPKLLIYTTSSLQSGVPSRFSGSGSGTDFTLTISSLQPEDFATYYCQQANSFPLTFGGGTKVDIK
notes: human IgG4 Fc (H4H)
For B2, the Kd in experiment [1] stood at 2.42 nM; in experiment [4], 7.12 nM; in experiment [5] it was 7.86 nM. Also, the koff came out at 0.000557 s⁻¹ in experiment [1], 0.0021 s⁻¹ in experiment [4] and 0.00135 s⁻¹ in experiment [5]. Besides, the kon in experiment [1] came to 230000 M⁻¹ s⁻¹; in experiment [4], 295000 M⁻¹ s⁻¹; in experiment [5] it was 172000 M⁻¹ s⁻¹. The t1/2 was 21 min in experiment [1], 6 min in experiment [4] and 9 min in experiment [5]. Further, the “binding response of second antibody (nm)” value came out at 0.03 nm in experiment [2], 0.05 nm in experiment [3], 0.16 nm in experiment [6] and 2.38 nm in experiment [7].

B3: H4H2352S (antibody, human IgG4, V domains shown)
VH: EVQLVQSGAEVKKPGASVKVSCKASGYTFTNYGITWVRQAPGQGLEWMGWISAYNGNTGYAQKFQGRVTMTTDTSTSTAYMELRSLRSDDTAVYYCAREDYDFWRAFDIWGQGTMVTVSS
VL: EIVLTQSPGTLSLSPGERATLSCRASQSVSSTYLAWLQQKPGQAPRLLIYGASSRATGIPDRFSGSGSGTDFTLTINRLEPEDFAVYYCQQYAYSPYTFGQGTKLEIK
notes: human IgG4 Fc (H4H); also called H4H2352S-1
Consider B3, for which the figures for the Kd in experiment [1], in experiment [4] and in experiment [5] were 0.082 nM, 0.118 nM and 0.117 nM, respectively. The koff came out at 5.81e-05 s⁻¹ in experiment [1], 0.000139 s⁻¹ in experiment [4] and 6.53e-05 s⁻¹ in experiment [5]. The kon in experiment [1] was 709000 M⁻¹ s⁻¹; in experiment [4], 1.18e+06 M⁻¹ s⁻¹; in experiment [5], 557000 M⁻¹ s⁻¹. In addition, the t1/2 in experiment [1] amounted to 199 min; in experiment [4], 83 min; in experiment [5], 177 min. The “binding response of second antibody (nm)” value in experiment [2] was 1.99 nm; in experiment [3], 1.85 nm; in experiment [6] it was 1.97 nm; in experiment [7], 0.08 nm.

B4: H4H2355S (antibody, human IgG4, V domains shown)
VH: EVQLVESGGGLVQPGGSLRLSCAASGFTFSSYAMSWVRQVPGKGLEWVSAISGSGDNTYNAESVKGRFTISRDNSKNMLYLQMNSLRAEDTAVYYCAKTKFSSSLLFDYWGQGTLVTVSS
VL: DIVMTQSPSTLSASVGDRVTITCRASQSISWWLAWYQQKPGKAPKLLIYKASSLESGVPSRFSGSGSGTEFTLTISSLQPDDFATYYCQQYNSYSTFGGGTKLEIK
notes: human IgG4 Fc (H4H)
Turning to B4, the dissociation constant (Kd) worked out at 0.821 nM in experiment [1], 4.37 nM in experiment [4] and 5.29 nM in experiment [5]. Further, the koff in experiment [1] came to 0.000152 s⁻¹; in experiment [4], 0.00123 s⁻¹; in experiment [5] it was 0.000913 s⁻¹. Besides, the kon stood at 186000 M⁻¹ s⁻¹ in experiment [1], 281000 M⁻¹ s⁻¹ in experiment [4] and 173000 M⁻¹ s⁻¹ in experiment [5]. The t1/2 was 76 min in experiment [1], 9 min in experiment [4] and 13 min in experiment [5]. For the same molecule, the “binding response of second antibody (nm)” value came to 0 nm in experiment [2], 0.02 nm in experiment [3], 0.07 nm in experiment [6] and 2.05 nm in experiment [7].

B5: H4H2342P (antibody, human IgG4, V domains shown)
VH: EVQLLESGGGLVQPGGSLRLSCAASGFTFSTYAMSWVRQAPGKGLEWVSAIRGNGVNTYYGDSMKGRFTISRDNSKDTLYLQMNSLRAEDTAVYYCAKNKWELLVFEYWGQGTLVTVSS
VL: DIQMTQSPSSLSASVGDRVTITCRASQDISNYLAWYQQKPGKVPKLLIYAASTLQSGVPFRFSGSGSGTDFTLTISSLQPEDVATYYCQKYNSAPPFGPGTKVDIK
notes: human IgG4 Fc (H4H)
For the molecule B5, the values for the Kd in experiment [1], in experiment [4] and in experiment [5] were 1.1 nM, 2.03 nM and 11.1 nM, respectively. Besides, the koff is 0.000204 s⁻¹ in experiment [1], 0.000671 s⁻¹ in experiment [4] and 0.00166 s⁻¹ in experiment [5]. Besides, the kon in experiment [1] turned out to be 186000 M⁻¹ s⁻¹; in experiment [4], 330000 M⁻¹ s⁻¹; in experiment [5], 150000 M⁻¹ s⁻¹. Besides, the t1/2 in experiment [1] was 57 min; in experiment [4], 17 min; in experiment [5], 7 min. Further, the “binding response of second antibody (nm)” value stood at 0.01 nm in experiment [2], 0.01 nm in experiment [3], 0.06 nm in experiment [6] and 2.17 nm in experiment [7].

B6: H4H2292S (antibody, human IgG4, V domains shown)
VH: EVQLVESGGGVVQPGRSLRLSCAASGFTFSSYGMHWVRQAPGKGLEWVSFIWYDGSNKYYADSVKGRFTISRDNSKNTLYLQMNSLTAEDTAVYYCARRGILTGTTAFDIWGQGTMVTVSS
VL: DIQMTQSPSSLSASVGDRVTITCRASQSISSYLNWYQQKPGKAPKLLIYAASSLQSGVPSRFSGSGSGTDFTLTIRSLIPEDFATYYCQQTYNTPFTFGPGTKVEIK
notes: human IgG4 Fc (H4H)
Consider B6, for which the results for the Kd in experiment [1], in experiment [4] and in experiment [5] were 0.483 nM, 1.94 nM and 2.18 nM, respectively. Further, the koff in experiment [1] was found to be 5.19e-05 s⁻¹; in experiment [4], 0.000249 s⁻¹; in experiment [5] it was 0.000195 s⁻¹. Also, the figures for the kon in experiment [1], in experiment [4] and in experiment [5] were 108000 M⁻¹ s⁻¹, 128000 M⁻¹ s⁻¹ and 89500 M⁻¹ s⁻¹, respectively. For the same molecule, the t1/2 in experiment [1] was determined as 223 min; in experiment [4], 46 min; in experiment [5] it was 59 min. The “binding response of second antibody (nm)” value in experiment [2] is 1.92 nm; in experiment [3], 1.8 nm; in experiment [6], 1.92 nm; in experiment [7], 1.76 nm.
